Reference: patent US20180127513A1 (Bristol-Myers Squibb, published 2018)
Numbering of substitutions follows the chain as printed. In names and notes the source's numbering stands.

T1: human CD73 on cells (human, UniProt P21589 27-549)
T1 sequence: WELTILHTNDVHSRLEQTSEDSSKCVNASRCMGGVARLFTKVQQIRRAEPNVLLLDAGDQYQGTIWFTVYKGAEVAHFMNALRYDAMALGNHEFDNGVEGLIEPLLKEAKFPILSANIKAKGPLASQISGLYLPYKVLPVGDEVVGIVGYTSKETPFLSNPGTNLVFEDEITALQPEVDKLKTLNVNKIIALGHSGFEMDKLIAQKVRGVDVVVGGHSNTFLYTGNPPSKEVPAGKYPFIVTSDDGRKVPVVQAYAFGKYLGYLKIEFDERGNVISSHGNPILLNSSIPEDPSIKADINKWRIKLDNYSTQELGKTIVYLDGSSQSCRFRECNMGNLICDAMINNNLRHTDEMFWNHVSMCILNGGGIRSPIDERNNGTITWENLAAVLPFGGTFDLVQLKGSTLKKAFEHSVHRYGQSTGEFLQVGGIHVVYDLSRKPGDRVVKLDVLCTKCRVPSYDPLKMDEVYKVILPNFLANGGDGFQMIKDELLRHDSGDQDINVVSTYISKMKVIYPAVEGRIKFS

T2: N-hCD73-his (human, UniProt P21589 26-336)
T2 construct: also called hCD73(26-336)His; CD73(26-336)His; not shown: His tag
T2 sequence: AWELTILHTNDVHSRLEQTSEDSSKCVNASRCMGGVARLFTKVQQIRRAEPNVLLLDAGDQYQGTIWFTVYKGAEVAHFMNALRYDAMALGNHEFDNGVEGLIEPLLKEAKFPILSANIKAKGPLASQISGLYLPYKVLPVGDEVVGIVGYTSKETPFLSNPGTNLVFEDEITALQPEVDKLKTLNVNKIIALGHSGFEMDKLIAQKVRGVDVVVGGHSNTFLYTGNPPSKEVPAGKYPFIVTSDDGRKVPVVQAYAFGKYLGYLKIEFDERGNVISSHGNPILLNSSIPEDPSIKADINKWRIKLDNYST

B1: 4D4 (antibody, human IgG2, kappa)
heavy: QVQLVESGGGVVQPGRSLRLSCAASGFTFSNYGMHWVRQAPGKGLEWVAVIWYDESNKYYADSVKGRFTISRDNSKNTLFLQMNSLRAEDTAVYYCARGYNSRWYPDAFDIWGQGTMVTVSSASTKGPSVFPLAPCSRSTSESTAALGCLVKDYFPEPVTVSWNSGALTSGVHTFPAVLQSSGLYSLSSVVTVPSSNFGTQTYTCNVDHKPSNTKVDKTVERKCCVECPPCPAPPVAGPSVFLFPPKPKDTLMISRTPEVTCVVVDVSHEDPEVQFNWYVDGVEVHNAKTKPREEQFNSTFRVVSVLTVVHQDWLNGKEYKCKVSNKGLPAPIEKTISKTKGQPREPQVYTLPPSREEMTKNQVSLTCLVKGFYPSDIAVEWESNGQPENNYKTTPPMLDSDGSFFLYSKLTVDKSRWQQGNVFSCSVMHEALHNHYTQKSLSLSPGK
light: not shown
notes: IgG2; also called 4D4-1
B2: 11F11 (antibody, human IgG2, kappa, V domains shown)
VH: QVQLVESGGGVVQPGRSLRLSCATSGFTFSNYGMHWVRQAPGKGLEWVAVILYDGSNKYYPDSVKGRFTISRDNSKNTLYLQMNSLRAEDTAVYYCARGGSSWYPDSFDIWGQGTMVTVSS
VL: DIQMTQSPSSLSASVGDRVTITCRASQGISSWLAWYQQKPEKAPKSLIYAASSLQSGVPSRFSGSGSGTDFTLTISSLQPEDFATYYCQQYNSYPLTFGGGTKVEIKR
notes: IgG2; also called 11F11-2
B3: 10D2 (antibody, human IgG4, kappa, V domains shown)
VH: B2 VH with T24A, M34L, L52R, P61A, N84S, S107G, F108L, I110V, M116T
VL: B2 VL
B4: 7A11 (antibody, human IgG1, kappa, V domains shown)
VH: EVQLVESGGGLVQTGRSLRLSCAASGFTFDDYAMHWVRQAPGKGLEWVSDISWNSDIIGYADSVKGRFTISRDNAKNSLYLQMNSLRAEDTALYYCAKDIYGSGSSFFDYWGQGILVTVSS
VL: B2 VL with G28Y, N92H, L96P, G100Q, K103R, V104L
B5: 24H2 (antibody, human IgG4, kappa, V domains shown)
VH: B2 VH with T24A, L52W, S56G, P61A, Y80F, S107A
VL: B2 VL
B6: CD73.10-IgG2-C219S (antibody)
heavy: QVQLVESGGGVVQPGRSLRLSCAASGFTFSNYGMHWVRQAPGKGLEWVAVIWYDESNKYYPDSVKGRFTISRDNSKNTLYLQMNSLRAEDTAVYYCARGGSSWYPDSFDIWGQGTMVTVSSASTKGPSVFPLAPCSRSTSESTAALGCLVKDYFPEPVTVSWNSGALTSGVHTFPAVLQSSGLYSLSSVVTVPSSNFGTQTYTCNVDHKPSNTKVDKTVERKSCVECPPCPAPPVAGPSVFLFPPKPKDTLMISRTPEVTCVVVDVSHEDPEVQFNWYVDGVEVHNAKTKPREEQFNSTFRVVSVLTVVHQDWLNGKEYKCKVSNKGLPAPIEKTISKTKGQPREPQVYTLPPSREEMTKNQVSLTCLVKGFYPSDIAVEWESNGQPENNYKTTPPMLDSDGSFFLYSKLTVDKSRWQQGNVFSCSVMHEALHNHYTQKSLSLSPG
light: not shown
notes: also called CD73.10-IgG2CS; CD73.10-IgG2S
B7: CD73.4-IgG2-C219S-IgG1.1f (antibody)
heavy: QVQLVESGGGVVQPGRSLRLSCAASGFTFSNYGMHWVRQAPGKGLEWVAVILYDGSNKYYPDSVKGRFTISRDNSKNTLYLQMNSLRAEDTAVYYCARGGSSWYPDSFDIWGQGTMVTVSSASTKGPSVFPLAPCSRSTSESTAALGCLVKDYFPEPVTVSWNSGALTSGVHTFPAVLQSSGLYSLSSVVTVPSSNFGTQTYTCNVDHKPSNTKVDKTVERKSCVECPPCPAPPVAGPSVFLFPPKPKDTLMISRTPEVTCVVVDVSHEDPEVKFNWYVDGVEVHNAKTKPREEQYNSTYRVVSVLTVLHQDWLNGKEYKCKVSNKALPSSIEKTISKAKGQPREPQVYTLPPSREEMTKNQVSLTCLVKGFYPSDIAVEWESNGQPENNYKTTPPVLDSDGSFFLYSKLTVDKSRWQQGNVFSCSVMHEALHNHYTQKSLSLSPG
light: not shown
modifications: N-terminal Gln 94% pyro-Q; 97% of heavy chains lack the C-terminal Lys
B8: CD73.10-IgG2-C219S-IgG1.1f (antibody)
heavy: B7 heavy with L52W, G55E
light: not shown
B9: CD73.11-IgG2-C219S (antibody)
heavy: QVQLVESGGGVVQPGRSLRLSCAASGFTFSNYGMHWVRQAPGKGLEWVAVIWYDESNKYYADSVKGRFTISRDNSKNTLFLQMNSLRAEDTAVYYCARGYNSRWYPDAFDIWGQGTMVTVSSASTKGPSVFPLAPCSRSTSESTAALGCLVKDYFPEPVTVSWNSGALTSGVHTFPAVLQSSGLYSLSSVVTVPSSNFGTQTYTCNVDHKPSNTKVDKTVERKSCVECPPCPAPPVAGPSVFLFPPKPKDTLMISRTPEVTCVVVDVSHEDPEVQFNWYVDGVEVHNAKTKPREEQFNSTFRVVSVLTVVHQDWLNGKEYKCKVSNKGLPAPIEKTISKTKGQPREPQVYTLPPSREEMTKNQVSLTCLVKGFYPSDIAVEWESNGQPENNYKTTPPMLDSDGSFFLYSKLTVDKSRWQQGNVFSCSVMHEALHNHYTQKSLSLSPG
light: not shown
notes: also called CD73.11-IgG2CS
B10: 4C3 (antibody, human IgG1, kappa, V domains shown)
VH: EVQLVESGGGLVQPGRSLRLSCAASGFTFDDYAMHWVRQAPGKGLEWVSGISWKSGSIGYADSVKGRFTISRDNAKNSLYLQMNSLRAEDTALYYCVKGYYVILTGLDYWGQGTLVTVSS
VL: not shown
notes: IgG1za; also called 4C3-1
B11: CD73.4-IgG2-C219S (antibody)
heavy: B6 heavy with W52L, E55G
light: not shown
notes: also called CD73.4-IgG2CS; CD73.4-IgG2.3; copies: 2 + 2
B12: 11A6 (antibody, human IgG1, kappa, V domains shown)
VH: B10 VH with G10N, K54N, S55N, G56N, S57D, T69I, A88P, L115P
VL: B2 VL
B13: 5F8 (antibody, human IgG1, kappa, V domains shown)
VH: EVQLVESGGGLVQPGGSLRLSCAASGFTFSSYWMHWVRQAPGKGLVWVSRIISDGSSTGYADSVKGRFTISRDNAKNTLYLQMNSLRAEDTAVYYCAREFSSGWYFDYWGQGTLVTVSS
VL: AIQLTQSPSSLSASVGDRVTITCRASQGISSALAWYQQKPGKAPKLLIYDASSLESGVPSRFSGSGSGTDFTLTISSLQPEDFATYYCQQFSSYPRTFGQGTKVEIKR

The binders below were run against T1, human CD73 on cells (assay: cell-based or functional assay).

Binder | Ymax, CD73 internalization (100 nM 11F11 set to 100%) [%]
B1 | 104
B2 | 98
B3 | 29
B4 | 50
B5 | 51
B6 | 99
B7 | 97
B8 | 99

What follows are binders tested against T2, N-hCD73-his (assay: SPR).
Excerpt: One experimental format tested the binding of the N-terminal domain of hCD73 (consisting of residues 26-336 of human CD73; termed N-hCD73) to antibodies that were captured on immobilized protein A surfaces. For these experiments, protein A (Pierce) was immobilized to a density of 3000-4000 RU on flow cells 1-4 of a CM5 sensor chip (GE Healthcare) using standard ethyl(dimethylaminopropyl) carbodiimide (EDC)/N-hydroxysuccinimide (NHS) chemistry, with ethanolamine blocking, in a running buffer of 0.01 M HEPES pH 7.4, 0.15 M NaCl, 3 mM EDTA, 0.005% v/v tween 20. […] The running buffer for the kinetic experiments was 10 mM sodium phosphate, 130 mM sodium chloride, 0.05% tween 20, pH 7.1. The surfaces were regenerated after each cycle using two 30 s pulses of 10 mM glycine pH 1.5 at a flow rate of 30 μl/min. Sensogram data was double-referenced and then fitted to a 1:1 Langmuir model using Biacore T100 evaluation software v2.0.4, to determine the association rate constant (ka), the dissociation rate constant (kd), and the equilibrium dissociation constant (KD).

Binder | Kd [nM]
B9 | ~5
B1 | ~5
B2 | 1.1
B10 | 100 to 200
B11 | 1.1
B6 | ~5

Molecular target: T1, human CD73 on cells
Assay: cell-based or functional assay
Remark: another data set of the same source

Binder | Ymax, cAMP HTRF assay (100 nM 11F11 set to 100%) [%]
B12 | 84
B2 | 76
B10 | 80
B4 | 45
B13 | 80
